# Patent US20070036786A1 (published 2007)
# Changes are numbered by the printed parent chain.
# B1: hu3G8VH-1/hu3G8VL-1 (antibody, human IgG1, kappa)
# heavy: not shown
# light: DIVMTQSPDSLAVSLGERATINCKASQSVDFDGDSFMNWYQQKPGQPPKLLIYTTSNLESGVPDRFSGSGSGTDFTLTISSLQAEDVAVYYCQQSNEDPYTFGQGTKLEIKRTVAAPSVFIFPPSDEQLKSGTASVVCLLNNFYPREAKVQWKVDNALQSGNSQESVTEQDSKDSTYSLSSTLTLSKADYEKHKVYACEVTHQGLSSPVTKSFNRGEC
# notes: Heavy chain Hu3G8VH-1G1, light chain Hu3G8VL-1K; also called Hu3G8-1.1
# B2: hu3G8VH-22/hu3G8VL-1 (antibody)
# VH: QVTLRESGPALVKPTQTLTLTCTFSGFSLSTSGVGVGWIRQPPGKALEWLAHIWWDDDKRYSPSLKSRLTISKDTSKNQVVLTMTNMDPVDTATYYCARINPAYFAYWGQGTLVTVS
# light: B1 light
# notes: VH fused to human Cγ1 constant region (glycosylated form)
# B3: hu3G8VH-20/hu3G8VL-1 (antibody)
# VH: QVTLRESGPALVKPTQTLTLTCTFSGFSLSTSGVGVGWIRQPPGKALEWLAHIWWDDDKRYSPSLKSRLTISKDTSKNQVVLTMTNMDPVDTATYYCARINPAWFAYWGQGTLVTVSS
# light: B1 light
# notes: VH fused to human Cγ1 constant region
# B4: hu3G8VH-2/hu3G8VL-1 (antibody)
# VH: B3 VH with R5K, V34M, S62N, S64A
# light: B1 light
# notes: as for B3
# B5: hu3G8VH-34/hu3G8VL-1 (antibody)
# VH: B3 VH with V2I, R5K, A10T, W104Y
# light: B1 light
# notes: as for B3
# B6: hu3G8VH-28/hu3G8VL-1 (antibody)
# VH: B3 VH with R99A, W104Y, A106D
# light: B1 light
# notes: as for B3
# B7: hu3G8VH-8/hu3G8VL-1 (antibody)
# VH: B3 VH with V34M, S62N, S64A, W104Y
# light: B1 light
# notes: as for B3
# B8: hu3G8VH-45/hu3G8VL-1 (antibody)
# VH: B3 VH with V2I, R5K, A10T, S72T, R99Q, W104Y, A106D
# light: B1 light
# notes: as for B3
# B9: hu3G8VH-44/hu3G8VL-1 (antibody)
# VH: B3 VH with V2I, R5K, A10T, S72T, R99H, W104Y, A106D
# light: B1 light
# notes: as for B3
# B10: hu3G8VH-36/hu3G8VL-1 (antibody)
# VH: B3 VH with V2I, R5K, A10T, H52L, R99Q, W104Y, A106D
# light: B1 light
# notes: as for B3
# B11: hu3G8VH-17/hu3G8VL-1 (antibody)
# VH: B3 VH with V34M, S62N, S64A, R99A
# light: B1 light
# notes: as for B3
# B12: hu3G8VH-35/hu3G8VL-1 (antibody)
# VH: B3 VH with V2I, R5K, A10T, R99Q, W104Y
# light: B1 light
# notes: as for B3
# B13: hu3G8VH-3/hu3G8VL-1 (antibody)
# VH: B3 VH with S30R, V34M, S62N, S64A
# light: B1 light
# notes: as for B3
# B14: hu3G8VH-5/hu3G8VL-1 (antibody)
# VH: B3 VH with V34M, S62N, S64A, R99Q
# light: B1 light
# notes: VH fused to human Cγ1 constant region (glycosylated form); also called Hu3G8-5.1
# B15: hu3G8VH-31/hu3G8VL-1 (antibody)
# VH: B3 VH with V2I, R5K, A10T
# light: B1 light
# notes: as for B3
# B16: hu3G8VH-24/hu3G8VL-1 (antibody)
# VH: B3 VH with R99A, W104Y
# light: B1 light
# notes: as for B3
# B17: hu3G8VH-29/hu3G8VL-1 (antibody)
# VH: B3 VH with R99H, W104Y, A106D
# light: B1 light
# notes: as for B3
# B18: hu3G8VH-19/hu3G8VL-1 (antibody)
# VH: B3 VH with V34M, S62N, S64A, R99Q, W104Y
# light: B1 light
# notes: as for B3
# B19: hu3G8VH-37/hu3G8VL-1 (antibody)
# VH: B3 VH with V2I, R5K, A10T, H52L, R99K, W104Y
# light: B1 light
# notes: as for B3
# B20: hu3G8VH-14/hu3G8VL-1 (antibody)
# VH: B3 VH with V34M, D56N, S62N, S64A
# light: B1 light
# notes: as for B3
# B21: hu3G8VH-23/hu3G8VL-1 (antibody)
# VH: B3 VH with R99K, W104Y
# light: B1 light
# notes: as for B3
# B22: hu3G8VH-26/hu3G8VL-1 (antibody)
# VH: B3 VH with R99Q, W104Y
# light: B1 light
# notes: as for B3
# B23: hu3G8VH-30/hu3G8VL-1 (antibody)
# VH: B3 VH with R99Q, W104Y, A106D
# light: B1 light
# notes: as for B3
# B24: hu3G8VH-6/hu3G8VL-1 (antibody)
# VH: B3 VH with S62N, S64A, A106D
# light: B1 light
# notes: as for B3
# B25: hu3G8VH-18/hu3G8VL-1 (antibody)
# VH: B3 VH with V34M, S62N, S64A, R99H
# light: B1 light
# notes: as for B3
# B26: hu3G8VH-12/hu3G8VL-1 (antibody)
# VH: B3 VH with V34M
# light: B1 light
# notes: as for B3
# B27: hu3G8VH-27/hu3G8VL-1 (antibody)
# VH: B3 VH with R99K, W104Y, A106D
# light: B1 light
# notes: as for B3
# B28: hu3G8VH-43/hu3G8VL-1 (antibody)
# VH: B3 VH with V2I, R5K, A10T, S72T, W104Y
# light: B1 light
# notes: as for B3
# B29: hu3G8VH-4/hu3G8VL-1 (antibody)
# VH: B3 VH with V34M, S62N, S64A, R99Q, A106D
# light: B1 light
# notes: as for B3
# B30: hu3G8VH-16/hu3G8VL-1 (antibody)
# VH: B3 VH with V34M, S62N, S64A, R99K
# light: B1 light
# notes: as for B3
# B31: hu3G8VH-42/hu3G8VL-1 (antibody)
# VH: B3 VH with V2I, R5K, A10T, S72T
# light: B1 light
# notes: as for B3
# B32: hu3G8VH-25/hu3G8VL-1 (antibody)
# VH: B3 VH with R99H, W104Y
# light: B1 light
# notes: as for B3
# B33: hu3G8VH-40/hu3G8VL-1 (antibody)
# VH: B3 VH with V2I, R5K, A10T, W54F
# light: B1 light
# notes: as for B3
# B34: chimeric 3G8 antibody (ch3G8VH/ch3G8VL) (antibody, V domains shown)
# VH: QVTLKESGPGILQPSQTLSLTCSFSGFSLRTSGMGVGWIRQPSGKGLEWLAHIWWDDDKRYNPALKSRLTISKDTSSNQVFLKIASVDTADTATYYCAQINPAWFAYWGQGTLVTVSS
# VL: DTVLTQSPASLAVSLGQRATISCKASQSVDFDGDSFMNWYQQKPGQPPKLLIYTTSNLESGIPARFSASGSGTDFTLNIHPVEEEDTATYYCQQSNEDPYTFGGGTKLEIK
# notes: Mouse 3G8 variable domains (VH FR4 ala to ser) on human Cγ1 and Cκ constant regions; also called ch3G8-γ1
# Biological target: T1, soluble human CD16A (sCD16A) (human, UniProt P08637 17-203)
# T1 construct: CD16A truncated just prior to the transmembrane region, expressed in HEK-293; The last seven residues come from vector pCDNA3.1; also called soluble form of human CD16A
# Test: ELISA, captured sCD16A
# Method: The plate was washed and dilutions of recombinant antibodies starting at 0.5 μg/ml in PBS-T-BSA were then added and incubated for 1 hr at room temp. Binding of recombinant antibodies to the captured sCD16A was then measured using an anti-human IgG-HRP conjugate and TMB substrate. After stopping color development using dilute sulfuric acid, the plate was read at 450 nm.
# T1 sequence (P08637 other isoform, or with tags, fused parts or gaps limits assumed): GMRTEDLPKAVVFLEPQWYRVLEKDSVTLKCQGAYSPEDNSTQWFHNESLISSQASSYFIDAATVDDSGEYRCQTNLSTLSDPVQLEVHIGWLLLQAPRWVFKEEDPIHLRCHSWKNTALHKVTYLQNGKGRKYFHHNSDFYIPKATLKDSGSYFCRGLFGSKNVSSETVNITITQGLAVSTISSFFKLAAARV
row,Binder,binding result
1,B1,binds
2,B2,binds
3,B3,binds
4,B4,binds
5,B5,binds
6,B6,binds
7,B7,binds
8,B8,binds
9,B9,binds
10,B10,binds
11,B11,binds
12,B12,binds
13,B13,binds
14,B14,binds
15,B15,binds
16,B16,binds
17,B17,binds

row,Binder,binding result
1,B18,binds
2,B19,binds
3,B20,binds
4,B21,binds
5,B22,binds
6,B23,binds
7,B24,binds
8,B25,binds
9,B26,binds
10,B27,binds
11,B28,binds
12,B29,binds
13,B30,binds
14,B31,binds
15,B32,binds
16,B33,binds
17,B34,binds
